Results as given in patent US20180022780A1 (Bayer, published 2018).
Bridge positions count the residues as written; N and C are the ends. Square brackets hold non-standard residues; d marks the D form. Ends that are not written are not given here. Dab = NCC[C@H](N)C(=O)O

B1: [G^14, (Dab^16, E^21)lac]ADM(14-52) (peptide)
peptide: GG[Dab]RFGTETVQKLAHQIYQFTDKDKDNVAPRSKISPQGY-NH2
modifications: lactam 3-8; N-terminus assumed
SMILES: CC[C@H](C)[C@H](NC(=O)[C@H](CCC(N)=O)NC(=O)[C@H](Cc1c[nH]cn1)NC(=O)[C@H](C)NC(=O)[C@H](CC(C)C)NC(=O)[C@H](CCCCN)NC(=O)[C@H](CCC(N)=O)NC(=O)[C@@H](NC(=O)[C@@H](NC(=O)[C@@H]1CCC(=O)NCC[C@H](NC(=O)CNC(=O)CN)C(=O)N[C@@H](CCCNC(=N)N)C(=O)N[C@@H](Cc2ccccc2)C(=O)NCC(=O)N[C@@H]([C@@H](C)O)C(=O)N1)[C@@H](C)O)C(C)C)C(=O)N[C@@H](Cc1ccc(O)cc1)C(=O)N[C@@H](CCC(N)=O)C(=O)N[C@@H](Cc1ccccc1)C(=O)N[C@H](C(=O)N[C@@H](CC(=O)O)C(=O)N[C@@H](CCCCN)C(=O)N[C@@H](CC(=O)O)C(=O)N[C@@H](CCCCN)C(=O)N[C@@H](CC(=O)O)C(=O)N[C@@H](CC(N)=O)C(=O)N[C@H](C(=O)N[C@@H](C)C(=O)N1CCC[C@H]1C(=O)N[C@@H](CCCNC(=N)N)C(=O)N[C@@H](CO)C(=O)N[C@@H](CCCCN)C(=O)N[C@H](C(=O)N[C@@H](CO)C(=O)N1CCC[C@H]1C(=O)N[C@@H](CCC(N)=O)C(=O)NCC(=O)N[C@@H](Cc1ccc(O)cc1)C(N)=O)[C@@H](C)CC)C(C)C)[C@@H](C)O
B2: [G^14, (E^16, K^21)lac]ADM(14-52) (peptide)
peptide: GGERFGTKTVQKLAHQIYQFTDKDKDNVAPRSKISPQGY-NH2
modifications: lactam 3-8; N-terminus assumed
SMILES: CC[C@H](C)[C@H](NC(=O)[C@H](CCC(N)=O)NC(=O)[C@H](Cc1c[nH]cn1)NC(=O)[C@H](C)NC(=O)[C@H](CC(C)C)NC(=O)[C@H](CCCCN)NC(=O)[C@H](CCC(N)=O)NC(=O)[C@@H](NC(=O)[C@@H](NC(=O)[C@@H]1CCCCNC(=O)CC[C@H](NC(=O)CNC(=O)CN)C(=O)N[C@@H](CCCNC(=N)N)C(=O)N[C@@H](Cc2ccccc2)C(=O)NCC(=O)N[C@@H]([C@@H](C)O)C(=O)N1)[C@@H](C)O)C(C)C)C(=O)N[C@@H](Cc1ccc(O)cc1)C(=O)N[C@@H](CCC(N)=O)C(=O)N[C@@H](Cc1ccccc1)C(=O)N[C@H](C(=O)N[C@@H](CC(=O)O)C(=O)N[C@@H](CCCCN)C(=O)N[C@@H](CC(=O)O)C(=O)N[C@@H](CCCCN)C(=O)N[C@@H](CC(=O)O)C(=O)N[C@@H](CC(N)=O)C(=O)N[C@H](C(=O)N[C@@H](C)C(=O)N1CCC[C@H]1C(=O)N[C@@H](CCCNC(=N)N)C(=O)N[C@@H](CO)C(=O)N[C@@H](CCCCN)C(=O)N[C@H](C(=O)N[C@@H](CO)C(=O)N1CCC[C@H]1C(=O)N[C@@H](CCC(N)=O)C(=O)NCC(=O)N[C@@H](Cc1ccc(O)cc1)C(N)=O)[C@@H](C)CC)C(C)C)[C@@H](C)O
B3: PAM[K^14, (C^16→U^21)]ADM(14-52) (peptide)
peptide: KGCRFGTXTVQKLAHQIYQFTDKDKDNVAPRSKISPQGY
modifications: palmitic acid (PAM) on the N-terminus (alpha-amine of K14); positions 16 and 21 (residues 3 and 8 of the letters) together are cystathionine (C^16→U^21, thioether); X stands for the printed U at 21; C-terminal amide
B4: [K^14(PAM), (C^16→U^21)]ADM(14-52) (peptide)
peptide: B3 peptide
modifications: palmitic acid (PAM) on the side chain of K14 (residue 1 of the letters); positions 16 and 21 (residues 3 and 8) together are cystathionine (C^16→U^21, thioether); X stands for the printed U at 21; C-terminal amide

These binders were tested against CLR fused to EYFP with RAMP2 fused to ECFP (assay: cell-based or functional assay).
Sequence of CLR fused to EYFP with RAMP2 fused to ECFP (Q16602 whole entry, chain 1 of 2, the tested form may be a part): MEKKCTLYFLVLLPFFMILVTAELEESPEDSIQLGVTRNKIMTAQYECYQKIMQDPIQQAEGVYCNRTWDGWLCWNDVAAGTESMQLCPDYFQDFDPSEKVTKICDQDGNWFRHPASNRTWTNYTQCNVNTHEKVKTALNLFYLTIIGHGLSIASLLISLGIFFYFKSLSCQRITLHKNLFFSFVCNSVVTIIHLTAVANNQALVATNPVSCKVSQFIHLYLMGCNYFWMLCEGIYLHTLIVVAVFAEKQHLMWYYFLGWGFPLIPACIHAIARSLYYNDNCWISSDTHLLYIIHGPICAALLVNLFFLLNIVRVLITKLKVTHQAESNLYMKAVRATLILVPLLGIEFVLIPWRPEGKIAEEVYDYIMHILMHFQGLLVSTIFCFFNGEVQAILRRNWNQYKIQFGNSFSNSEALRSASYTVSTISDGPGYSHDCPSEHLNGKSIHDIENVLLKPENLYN
Sequence of CLR fused to EYFP with RAMP2 fused to ECFP (O60895 whole entry, chain 2 of 2, further chain, the tested form may be a part): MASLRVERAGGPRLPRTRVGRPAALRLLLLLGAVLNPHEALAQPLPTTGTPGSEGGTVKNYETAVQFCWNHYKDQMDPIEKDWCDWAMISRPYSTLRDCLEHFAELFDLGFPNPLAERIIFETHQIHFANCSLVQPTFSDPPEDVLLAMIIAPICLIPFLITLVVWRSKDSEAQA

First: GGERFGT[Dab]TVQKLAHQIYQFTDKDKDNVAPRSKISPQGY-NH2 (lactam 3-8) [[G^14, (E^16, Dab^21)lac]ADM(14-52)]
Second: B1
The “EC50 [nM], cAMP assay (CRE-luciferase luminescence, HEK293 cells)” value of the first is 2-fold lower: 41 nM for the first, 84 nM for the second.

For B2, the “EC50 [nM], cAMP assay (CRE-luciferase luminescence, HEK293 cells)” value was 31 nM.

Each binder was assayed against human adrenomedullin-receptor (human, UniProt Q16602 23-461) (assay: cell-based or functional assay).
Sequence of human adrenomedullin-receptor (Q16602 23-461): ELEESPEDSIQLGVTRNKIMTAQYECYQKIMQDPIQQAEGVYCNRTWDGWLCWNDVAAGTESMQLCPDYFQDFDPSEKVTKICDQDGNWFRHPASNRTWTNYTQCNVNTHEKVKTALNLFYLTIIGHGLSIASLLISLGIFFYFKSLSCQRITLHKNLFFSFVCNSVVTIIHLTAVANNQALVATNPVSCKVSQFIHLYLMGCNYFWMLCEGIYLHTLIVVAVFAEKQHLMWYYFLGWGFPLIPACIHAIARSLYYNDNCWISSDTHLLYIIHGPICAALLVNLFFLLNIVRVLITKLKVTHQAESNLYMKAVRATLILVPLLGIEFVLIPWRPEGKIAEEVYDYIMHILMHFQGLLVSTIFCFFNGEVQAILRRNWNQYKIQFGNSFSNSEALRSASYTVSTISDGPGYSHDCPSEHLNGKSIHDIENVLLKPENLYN

Going from GGERFGT[Dab]TVQKLAHQIYQFTDKDKDNVAPRSKISPQGY-NH2 (lactam 3-8) [[G^14, (E^16, Dab^21)lac]ADM(14-52)] to B1, the “EC50 [nM], aequorin luminescence of CHO adrenomedullin-receptor reporter cells” value (from here on “EC50 [nM], aequorin luminescence”) rises from 19.6 nM to 34 nM (1.7-fold).

First: B3
Second: B4
The “EC50 [nM], aequorin luminescence” value of the first is 2.2-fold lower: 11 nM for the first, 24 nM for the second.

With B2 the “EC50 [nM], aequorin luminescence” value was 20.5 nM.
